Experimental data taken from patent US20030096379A1, “Method for producing tryptamine derivatives” (priority 2001, published 2003).
Marks after values point to notes of the source that are not given here.

Columns and labels:
[1] = biological target: T1, E. coli DH5α tryptophan synthase (TrpBA) (Escherichia coli, UniProt P0A879); assay type: biochemical; set-up: key: +: a clear ninhydrin-positive spot at the Rf of standard tryptophan derivatives after 16-65 h; (+): a weak spot in the product region; −: no product observed; NR: experiment not run; conditions: indole derivative + L-serine + PLP, 37° C., 16-65 h, ninhydrin
T1 construct: made in house; host or cells: E. coli LMG194 (pBAD) or BL-21 (pET)
Description: (§1) A mixture containing 2 μmole of the indole derivative, 0.05 μmole of PLP and 50 μmol of L-serine in 40 mM KPi buffer in 8% v/v ethanol water, pH 7.5, was warmed to 37° C., then enzyme solution was added to give a final volume of 1 mL. Aliquots (100 μL) were quenched at intervals of 2, 6, and 24 hours or more in microcentrifuge capsules containing 25 μL of 6 M HCl. The quenched samples were evaporated in a Savant Speed-vac. The residues were resuspended in methanol/water (1:1, 50 μL) and analyzed by TLC on Silica gel GF254 plates alongside tryptophan and tryptamine standards, eluting with CH2Cl2/EtOH/H2O/HOAc 77:20:2:1. Products were visualized first by using short-wave UV light, then with ninhydrin spray reagent (1/1/98 w/v/v ninhydrin/HOAc/EtOH) followed by heating.
(§2) Substituted indoles were incubated with L-serine, PLP and enzyme (TrpBA or TnA) prior to TLC analysis as generally described in Example 6. Serine, which can be used instead of pyruvate and ammonia for tryptophan synthesis with TnA, was employed as the 3-carbon acid because pyruvate tended to obscure the tryptophan product spots when plates were visualized with ninhydrin. TnA-catalyzed formation of tryptophan was also faster when serine was the 3-carbon donor. Reaction rates for several substrates were also estimated by HPLC.
(§3) In Table 4, “+” indicates a clear ninhydrin-positive spot at the Rf of standard tryptophan derivatives after 16-65 h; “(+)” indicates a weak spot in the product region; “−” means no product observed, “NR” means experiment not run. ESMS=electrospray mass spectrometry. Unless otherwise indicated, the mass value given represents the singly-protonated molecular ion (M+1).

TrpBA and TDC1 = assay: Coupled enzyme synthesis monitored by HPLC; assay type: biochemical; conditions: L-serine, PLP, pH 8.5 phosphate buffer, 37° C.
Description: To a solution containing L-serine (25 μmol), pyridoxal phosphate (0.05 μmol) and TrpBA (0.02 to 1.5 units, depending on the substrate), TDC1 (0.2 mL 0.6 units) and KPi buffer (0.05 mmol, pH 7.5) in a volume of 0.8 mL were added […] of 5 mM indole derivative in 20% v/v ethanol/water. The mixture was incubated at 37° C. and aliquots were quenched and analyzed as described for Example 8. In cases where tryptamine and/or tryptophan standards were not available, peaks were collected for mass spectral analysis. Electrospray mass spectral analyses were performed.
Mixtures containing indole, L-serine, PLP and TDC1 were incubated in pH 8.5 phosphate buffer, analyzing aliquots by HPLC, as described in Example 12.
The procedure used in Example 24 was carried out by substituting indole with 2-methylindole, 4-hydroxymethylindole, 5-methoxy-, 5-hydroxymethyl-, 5-methoxycarbonyl, and 5,6-dimethoxyindole.

TrpBA = biological target: T2, TrpBA (Escherichia coli, UniProt P0A879); assay: Relative rates of tryptophan derivative synthesis by HPLC, TrpBA; assay type: biochemical, E. coli; conditions: initial rate estimated by HPLC, indole = 100%, L-serine
T2 construct: made in house; host or cells: E. coli LMG194 (pBAD) or BL-21 (pET)
Description: Reaction mixtures were prepared as in Example 6 and were incubated at 37° C. Aliquots (100 μL) were removed and quenched by addition of to 300 μL of 0.5 M sodium citrate, pH 3.0 in 10% v/v acetonitrile/water in 2 ml microcentrifuge tubes. Following centrifugation for 10 min at 13,000×g, the supernatants were passed through 0.45μ membrane filters prior to HPLC analysis of 20 μL of filtrate.
TnA reactions were run with L-serine as the 3-carbon substrate.

tryptophanase (TnA) = biological target: T3, tryptophanase (TnA) (Escherichia coli, UniProt P0A853); assay type: biochemical, E. coli; set-up: key: +: a clear ninhydrin-positive spot at the Rf of standard tryptophan derivatives after 16-65 h; (+): a weak spot in the product region; −: no product observed; NR: experiment not run; conditions: indole derivative + L-serine + PLP, 37° C., 16-65 h, ninhydrin
T3 construct: made in house; host or cells: E. coli LMG194 (pBAD) or BL-21 (pET)
Description: as §1, §2, §3

[2] = pH-rate profiles for tryptophan-metabolizing enzymes; assay type: biochemical; conditions: for activity over the entire optimum pH range shown by TrpBA: pH 7.5 to 9.5
From the text: Both AAADs TDC1 and TDC2 were active over the entire optimum range shown by TrpBA. These broad activity ranges make it clear that the coupled enzyme process is not limited by pH.

[3] = Tryptophan synthase activity of the enzyme preparation (290 nm assay); assay type: biochemical, E. coli
Description: (§4) Tryptophan synthase activity was assayed by monitoring the increase in absorbance at 290 nm of a mixture containing serine, indole and PLP (Higgins, W., et al., Biochemistry, 1979, 18, 4827). TnA-catalyzed tryptophan synthesis was also measured by the 290 nm assay, while the tryptophan lyase reaction rate was measured by monitoring the reduction in NADH in reaction mixtures containing L-tryptophan and lactate dehydrogenase, indicating the amount of pyruvate released. Tryptophan decarboxylase was assayed colorimetrically by monitoring the sabsorbance at 580 nm produced by serotonin (AAADs) or tryptamine (TDCs) following treatment of reaction aliquots with Ehrlich's reagent (4-N,N-(dimethyl)aminobenzaldehyde in ethanolic HCl; Nakazawa, H.; Kumagi, H.; Yamada, H. Biochem Biophys. Res. Commun., 1974, 61, 75-82). Serotonin could be detected with approximately 5-fold higher sensitivity by this method as compared with tryptamine. The Ehrlich reagent assay using a microtiter plate format for simultaneous analysis of multiple enzyme samples may also be used. HPLC analysis was performed on acid-quenched reaction aliquots by using a base-deactivated C8 reversed-phase support (Shandon Hypersil BD8). HPLC analysis of acid-quenched aliquots permitted calculation of a rate ratio of 4.5 to 1 for pkAAAD-catalyzed DOPA decarboxylation relative to that of L-5-hydroxytryptophan, in good agreement with the accepted ratio of approximately 5:1. (See Sourkes, T. L. Methods Enzymol., 1987, 142, 170-178, which is incorporated herein by reference.)
Reaction mixtures were prepared as in Example 6 in polymethacrylate or quartz spectrophotometer cuvettes, and the increase absorbance were measured immediately at 290 nm, assuming a change in extinction coefficient for the indole-tryptophan conversion is δ290=1.85 MM−1 cm^−1. For TrpBA, the rate at 37° C. is approximately 2.8 fold higher than at 23° C.
Activity is expressed as μmol product formed per minute, TrpBA activity is reported for the reaction: indole+serine−>tryptophan at room temperature as described in the next section. Tryptophanase is reported for the reaction: tryptophan−>indole+pyruvate+NH4^+ at room temperature. The rate of tryptophan synthesis for TrpBA under our assay conditions is approximately 3-fold higher at 37° C.

[4] = Decarboxylase activity of the enzyme preparations (Ehrlich's reagent); assay type: biochemical
Description: as §4
A mixture (0.95 mL) containing L-5-hydroxytryptophan (2 mM), PLP (0.25 mM) and pH 7.5 KPi buffer (44 mM) was warmed to 37° C., then 50 μL of enzyme was added. Reaction aliquots were quenched in microcentrifuge capsules containing 50 μL each of 6M HCl to quench the enzyme reaction at 2, 5, and 20 min. Quenched aliquots were heated at 50° C. for 40 min with 750 μL each of Ehrlich's reagent (2:24:74 w/v/v […]: conc HCl: ethanol). Absorbance was read at 580-nm and compared with standards of serotonin (10-250 μM) or tryptamine (50 to 2000 μM).
Decarboxylase enzyme activity was determined using L-5-hydroxytryptophan as the substrate unless otherwise stated.

[5] = Table 2, L-5-hydroxytryptophan as substrate

Row | Molecule | TrpBA (tryptophan product spot, TLC analysis) [1] | formation of tryptophan derivative and tryptamine (HPLC peaks) (TrpBA and TDC1) | Relative rate (TrpBA) (TrpBA) | TnA (tryptophan product spot, TLC analysis) (tryptophanase (TnA)) | Crude specific activity [4, 5] [units/mg] | Purified specific activity [4, 5] [Units/mg] | Crude specific activity ([4]; Table 3, decarboxylases) [units/mg] | activity over the entire optimum pH range shown by TrpBA [2] | further results
1 | Cc1cc2ccccc2[nH]1 [2-methyl-, 2-methylindole] | − | a second peak representing formation of tryptamine | 20.6* % | + |  |  |  |  | 
2 | COc1ccc2[nH]ccc2c1 [5-methoxy-] | + | a second peak representing formation of tryptamine | 19.0% | + |  |  |  |  | 
3 | TrpBA: wild-type E. coli DH5α tryptophan synthase, E.C.4.2.1.20, α- and β-subunits coexpressed (protein, UniProt P0A877 1-268; P0A879 2-397, looked up) Tryptophan synthase alpha …: MERYESLFAQLKERKEGAFVPFVTLGDPGIEQSLKIIDTLIEAGADALELGIPFSDPLADGPTIQNATLRAFAAGVTPAQCFEMLALIRQKHPTIPIGLLMYANLVFNKGIDEFYAQCEKVGVDSVLVADVPVEESAPFRQAALRHNVAPIFICPPNADDDLLRQIASYGRGYTYLLSRAGVTGAENRAALPLNHLVAKLKEYNAAPPLQGFGISAPDQVKAAIDAGAAGAISGSAIVKIIEQHINEPEKMLAALKVFVQPMKAATRS Tryptophan synthase beta chain: TTLLNPYFGEFGGMYVPQILMPALRQLEEAFVSAQKDPEFQAQFNDLLKNYAGRPTALTKCQNITAGTNTTLYLKREDLLHGGAHKTNQVLGQALLAKRMGKTEIIAETGAGQHGVASALASALLGLKCRIYMGAKDVERQSPNVFRMRLMGAEVIPVHSGSATLKDACNEALRDWSGSYETAHYMLGTAAGPHPYPTIVREFQRMIGEETKAQILEREGRLPDAVIACVGGGSNAIGMFADFINETNVGLIGVEPGGHGIETGEHGAPLKHGRVGIYFGMKAPMMQTEDGQIEESYSISAGLDFPSVGPQHAYLNSTGRADYVSITDDEALEAFKTLCLHEGIIPALESSHALAHALKMMRENPDKEQLLVVNLSGRGDKDIFTVHDILKARGEI |  |  |  |  |  |  |  |  | percent of the maximum rate ([2]; between pH 7.5 and 9.5, L-serine and indole): at least 90%; rate at 37° C. relative to 23° C. ([3]; 290 nm assay): approximately 2.8 fold; Crude specific activity ([3]; Table 3, TrpBA): 1.2 units/mg; Crude spec activity ([3]; TrpBA, indole+serine->tryptophan, room temperature): 1.2; Purified specific activity ([3]; TrpBA, indole+serine->tryptophan, room temperature, after DEAE cellulose): 2.2 Units/mg; rate of tryptophan synthesis at 37° C. relative to room temperature ([3]; assay conditions of Table 1): approximately 3 fold
4 | TDC2: C. accuminata tryptophan decarboxylase expressed in E. coli DH5α (protein, UniProt P93083 1-498, looked up) Tryptophan decarboxylase TDC2: MGSIDSNYDTESAGQCRPLEPEEFRKQAHQMVDFIADYYKNIESYPVLSQVEPGYLQSRLPETAPYRPEPFESILKDVHKDIIPGVTHWLSPNFFAYFPATVSSAAFVGEMLCTCFNAVGFNWLASPAELELEMVVMDWLASMLKLPNSFTFLGTGGGVIQGTTSEAILCTLIAARDRALESIGVDSIHKLVVYGSDQTHSTYAKACNLAGILPCNIRSIRTEAVANFSLSPDSLHREIEADVAAGMVPLYLCATVGTTSTTAIDSLSPLADVANDYGLWFHVDAAYAGSACICPEFRHYLDGIERADSLSLSPHKWLLSYLDCCCLWVKRPSVLVKALSTDPEYLKNKPSESNSVVDFKDWQVGTGRRFKALRLWFVMRSYGVANLQSHIRSDIQMAKMFEEFVNSDPRFEIVVPRVFSLVCFRLNPFSKSDPCNTELLNRKLLEWVNSTGQVYITHTKVGGVYMLRFAVGATLTEEHHVSAAWKLIREGADALLCS |  |  |  |  | 0.12 | 0.2 | 0.12 | active | 
5 | TDC1: C. accuminata tryptophan decarboxylase expressed in E. coli DH5α (protein, UniProt P93082 1-502, looked up) Tryptophan decarboxylase TDC1: MGSLDSNYDTESPASVGQFNPLDPEEFRKQAHCIVDFIADYYKNIESYPVLSQVDPGYRHSRLGKNAPYRSEPFESILKDVQKDIIPGMTHWMSPNFFAHFPATVSSAAFVGEMLCTCFNSVGFNWLASPAATELEMVVIDWLANMLKLPKSFMFSGTGGGVLQGTTSEAILCTLIAASPMHFEIVGVKTSTSFVVYGSDQTHSTYAKACKLAGILPCNIRSIPTTADSNFSVSPLLLRRAIEADKAAGMVPLYICATVGTTSTTAIDPLSSLADVANDYGVWFHVDAAYAGSACICPEFRHYLDGIERADSLSLSPHKWLLSYLDCCCLWVKSPSLLVKALSTDPEYLKNQPSESKSVVDYKDWQVGTGRRFKALRLWFVMRSYGVANLQSHIRTDVQMAKMFEGFVKSDPRFEILVPRVFSLVCFRLNPISGSDPTGTEALNRKLLDWVNSTGRVYMTHTKVGGIYMLRFAVGATLTEKRHVSSAWKLIKEGADVLLKED |  |  |  |  | 0.11 | 0.3 | 0.11 | active | 
